Measured values taken from article PMC6572788.

Experiments:
[1] = target: wt-CFTR fused to enhanced green fluorescent protein (His10-SUMO*-CFTR^FLAG-EGFP), PKA phosphorylated (human) (UniProt P13569)
[2] = target: stabilized version of human CFTR (stab-CFTR: 2PT/ΔRI/R1048A_1172X) (human) (UniProt P13569)
[3] = target: wt-CFTR fused to enhanced green fluorescent protein (His10-SUMO*-CFTR^FLAG-EGFP), PKA phosphorylated (human) (UniProt P13569); remark: listed apart in the source

Sequence of wt-CFTR fused to enhanced green fluorescent protein (His10-SUMO*-CFTR^FLAG-EGFP), PKA phosphorylated (human) (P13569 whole entry, the tested form may be a part): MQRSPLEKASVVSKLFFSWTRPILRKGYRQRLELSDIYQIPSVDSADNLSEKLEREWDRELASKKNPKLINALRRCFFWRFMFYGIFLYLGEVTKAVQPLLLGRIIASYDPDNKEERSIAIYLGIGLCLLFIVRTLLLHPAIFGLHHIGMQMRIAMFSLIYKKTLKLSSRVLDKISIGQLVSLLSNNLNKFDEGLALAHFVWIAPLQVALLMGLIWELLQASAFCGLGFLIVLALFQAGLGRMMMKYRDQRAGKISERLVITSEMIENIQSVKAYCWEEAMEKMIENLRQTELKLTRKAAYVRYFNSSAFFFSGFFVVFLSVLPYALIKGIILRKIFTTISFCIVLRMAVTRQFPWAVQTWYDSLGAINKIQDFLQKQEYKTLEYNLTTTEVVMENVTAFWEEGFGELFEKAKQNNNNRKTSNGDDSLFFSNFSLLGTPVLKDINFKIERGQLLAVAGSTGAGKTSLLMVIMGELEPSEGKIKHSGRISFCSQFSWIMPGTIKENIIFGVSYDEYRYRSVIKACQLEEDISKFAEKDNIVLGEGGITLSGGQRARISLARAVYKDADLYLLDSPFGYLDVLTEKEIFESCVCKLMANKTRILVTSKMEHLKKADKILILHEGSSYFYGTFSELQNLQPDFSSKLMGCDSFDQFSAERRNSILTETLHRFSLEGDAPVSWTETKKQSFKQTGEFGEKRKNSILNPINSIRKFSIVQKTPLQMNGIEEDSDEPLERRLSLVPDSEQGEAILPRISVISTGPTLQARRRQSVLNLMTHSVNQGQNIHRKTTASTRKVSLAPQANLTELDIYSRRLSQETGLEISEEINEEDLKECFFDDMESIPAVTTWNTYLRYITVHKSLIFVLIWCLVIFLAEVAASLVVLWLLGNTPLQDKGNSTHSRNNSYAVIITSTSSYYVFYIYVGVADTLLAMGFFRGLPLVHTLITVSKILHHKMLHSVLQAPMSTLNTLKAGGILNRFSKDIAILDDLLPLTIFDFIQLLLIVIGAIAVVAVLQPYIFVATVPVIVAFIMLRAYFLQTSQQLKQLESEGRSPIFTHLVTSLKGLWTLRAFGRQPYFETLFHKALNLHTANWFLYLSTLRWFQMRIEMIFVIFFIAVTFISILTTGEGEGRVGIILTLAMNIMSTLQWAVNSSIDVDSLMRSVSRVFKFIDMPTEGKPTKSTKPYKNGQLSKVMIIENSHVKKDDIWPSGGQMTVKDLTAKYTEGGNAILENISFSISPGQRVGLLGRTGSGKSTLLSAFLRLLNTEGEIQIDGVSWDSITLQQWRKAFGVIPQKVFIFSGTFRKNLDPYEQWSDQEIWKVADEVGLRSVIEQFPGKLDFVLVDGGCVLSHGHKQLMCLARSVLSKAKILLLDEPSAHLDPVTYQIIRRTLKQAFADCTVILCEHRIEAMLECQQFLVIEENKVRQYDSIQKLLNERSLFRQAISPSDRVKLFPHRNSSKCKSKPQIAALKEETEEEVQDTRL
Sequence of stabilized version of human CFTR (stab-CFTR: 2PT/ΔRI/R1048A_1172X) (human) (P13569 other isoform, or with tags, fused parts or gaps, stated change not applied): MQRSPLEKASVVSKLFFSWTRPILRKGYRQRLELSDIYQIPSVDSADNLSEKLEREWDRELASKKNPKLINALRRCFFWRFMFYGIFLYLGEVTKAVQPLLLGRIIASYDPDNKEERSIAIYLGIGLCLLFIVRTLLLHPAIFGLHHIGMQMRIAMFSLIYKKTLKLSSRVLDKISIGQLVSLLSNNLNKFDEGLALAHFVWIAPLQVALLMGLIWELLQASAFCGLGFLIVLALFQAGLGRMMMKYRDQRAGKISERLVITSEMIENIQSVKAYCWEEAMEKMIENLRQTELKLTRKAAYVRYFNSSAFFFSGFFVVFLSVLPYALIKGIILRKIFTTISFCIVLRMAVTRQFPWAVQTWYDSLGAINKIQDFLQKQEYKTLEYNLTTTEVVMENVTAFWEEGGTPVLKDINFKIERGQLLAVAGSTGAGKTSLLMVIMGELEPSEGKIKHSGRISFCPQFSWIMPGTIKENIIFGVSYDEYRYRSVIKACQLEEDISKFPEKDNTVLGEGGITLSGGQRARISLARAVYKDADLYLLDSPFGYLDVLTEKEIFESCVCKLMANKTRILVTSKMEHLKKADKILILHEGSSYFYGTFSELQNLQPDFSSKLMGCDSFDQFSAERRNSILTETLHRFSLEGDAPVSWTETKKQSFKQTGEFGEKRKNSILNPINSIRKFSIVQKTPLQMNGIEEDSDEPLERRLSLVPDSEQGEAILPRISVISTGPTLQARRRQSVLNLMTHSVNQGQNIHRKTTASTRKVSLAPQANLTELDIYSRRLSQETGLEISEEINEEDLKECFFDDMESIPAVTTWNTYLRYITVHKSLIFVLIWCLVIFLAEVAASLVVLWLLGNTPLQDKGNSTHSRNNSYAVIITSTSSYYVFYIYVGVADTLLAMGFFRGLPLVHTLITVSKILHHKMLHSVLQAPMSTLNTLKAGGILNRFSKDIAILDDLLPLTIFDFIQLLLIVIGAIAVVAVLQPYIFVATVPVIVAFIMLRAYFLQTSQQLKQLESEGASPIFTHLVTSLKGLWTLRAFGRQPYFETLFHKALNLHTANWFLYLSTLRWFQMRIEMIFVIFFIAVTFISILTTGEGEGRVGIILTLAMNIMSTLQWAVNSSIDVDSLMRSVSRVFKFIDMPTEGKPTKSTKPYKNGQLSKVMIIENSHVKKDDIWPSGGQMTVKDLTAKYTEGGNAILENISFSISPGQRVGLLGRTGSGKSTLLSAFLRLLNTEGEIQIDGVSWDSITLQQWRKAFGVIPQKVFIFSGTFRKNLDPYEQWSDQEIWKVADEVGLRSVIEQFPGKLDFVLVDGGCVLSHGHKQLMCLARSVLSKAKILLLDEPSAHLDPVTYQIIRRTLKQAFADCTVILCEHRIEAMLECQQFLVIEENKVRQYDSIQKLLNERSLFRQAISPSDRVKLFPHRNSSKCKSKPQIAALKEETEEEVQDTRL

Row | Binder | ATPase activity of PKA-phosphorylated wt-CFTR (25 nM) with 1 µM nanobody, percent of the activity without nanobody [1] [%] | thermostabilization of stab-CFTR by nanoDSF (~1:2 molar ratio) [2] [°C] | shift of the temperature of thermal inactivation of the ATPase activity of wt-CFTR (30 min heat challenge) [3] [°C] | shift of the temperature of thermal inactivation of the ATPase activity of wt-CFTR (30 min heat challenge; 15 µM G3a) [3] [°C]
1 | nanobody T2a (VHH) VHH: QVQLQESGGGLVQAGGSLRLSCAASGSIFRIDAMGWYRQAPGKQRELVAHSTSGGSTDYADSVKGRFTISRDNAKNTVYLQMNSLKPEDTAVYYCNADVRTRWYASNNYWGQGTQVTVSS | 50 | 8 |  | 
2 | nanobody D12 (VHH) VHH: QVQLQESGGGLVQAGSSLRLACAATGSIRSINNMGWYRQAPGKQRGMVAIITRVGNTDYADSVKGRFTISRDNAKNTVYLQMNSLKPEDTATYYCHAEITEQSRPFYLTDDYWGQGTQVTVSS | 50 |  | 7 | 
3 | nanobody G3a (VHH) VHH: QVQLQESGGGLVQAGGSLRLSCTASGRAFSWYVMGWFRQAPGKEREFVATVSGNGSRRDYADSVKGRFTISRDNAKNTVYLQMNSLKPEDTAVYYCAASSTYYYTDPEKYDYWGQGTQVTVSS |  |  |  | 3.1

Now from value to binder:

Row | ATPase activity of PKA-phosphorylated wt-CFTR (25 nM) with 1 µM nanobody, percent of the activity without nanobody [1] [%] | thermostabilization of stab-CFTR by nanoDSF (~1:2 molar ratio) [2] [°C] | shift of the temperature of thermal inactivation of the ATPase activity of wt-CFTR (30 min heat challenge) [3] [°C] | shift of the temperature of thermal inactivation of the ATPase activity of wt-CFTR (30 min heat challenge; 15 µM G3a) [3] [°C] | Binder
4 | 30 |  |  |  | nanobody T27 (VHH) VHH: QVQLQESGGGLEQPGGSLRLSCATSGVIFGINAMGWYRQAPGKQRELVATFTSGGSTNYADFVEGRFTISRDNAKNTVYLQMNGLRPEDTAVYYCHATVVVSRYGLTYDYWGQGTQVTVSS
5 |  | 8 |  |  | nanobody T4 (VHH) VHH: QVQLQESGGGLVQAGGSLRLSCAASGSTFAIIAMGWYRQAPGKQRELVAVISTGDTRYADSVKGRFTISRDNAKNTVYLQMDSLRPEDTAVYYCNAAVQVRDYRNYWGQGTQVTVSS
